Test: soluble on expression in E. coli; label from the status in PepcDB or PDB records
For “MGSDKIHHHHHHMREDFTNEIVTESLNEAGILVEKPSEIRRHFDDLQFDSRKVTKKNTLFVVKGAFKIEYLTASLLDKISGIVTSRKEKINIPNLPHWIVSNSQIALAVLSAEFFGHPEKKLKILGITGTKGKTSSTYMAYSLLDRLTNHQTAMFSTIDTFLGRGIKFKSELTTPESYELFSNMKKALDNGNKYLVMEVSSQSYLKNRVFGIHFKVGAFLNISPDHIGINEHPTFADYLAHKKMLAENSDVFVSNIDDAHGQEFIDHAKSFGAKTVSVSENKKADVNFHIKKADLDESIFYLTEKGNSQEFLLDIPGVFNIYNASVAIAMVREMGFKPEKAKKALAELQIPGRMVKIKTKSHGLIIVDYAHNGQAVTTLLTFLKSQHQGGKIIIVLGSPGDKGEDRRSQFGEVISKFVDVAYLTTDDPGTEDPHQINNQIRKAISNPNVELHEELDRSKAIQEAIKKANINDLVVLAAKGEDAFQKTNHVDVPYLGDKKVAEEFLAEIEKV”, the “soluble on expression in E. coli” value was “not soluble”. In the case of “GPGSMAPAVIEIHIPLDRIRNEEYATDDLLLNCLSKIGDTPEEDGLPLRTWILREAHQALIKSPKLRTVLVKPQTVKDKPTHFQICFDE”, the “soluble on expression in E. coli” value is reported as “soluble”. For “MSQLYAQEPRLGIPDSMLRYGTVVTMEQGDTVYDIALPQVWVKHKKYKSRQLTPQERQELWRLIRDVKRTLPYAKMIAATLIETYEYMETMPDEKSRQKHLKRMEKEMKQQYMPEMKRLTLRQGKLLIKLIDRQCAQSSYQLLKAFLGGWKAGWWNLFARFYGASLKTRYEPDKNPEDALTERIVLLVEEKRI”, the “soluble on expression in E. coli” value was “not soluble”. For “MQKLTVGLIGNPNSGKTTLFNQLTGARQRVGNWAGVTVERKEGIFATTDHQVTLVDLPGTYSLTTISSQTSLDEQIACHYILSGDADMLINVVDASNLERNLYLTLQLLELGIPCVVALNMLDIAEKQQVRIDIDALAARLGCPVIPLVSTRGRGIEALKIALDRHQANSDLELVHYPQPLLREADLLAQQMSAQIPPRQRRWLGLQMLEGDIYSRAYAGDAADKLDIALANLSDEIDDPALHIADARYQTIAAICDAVSNTLTAEP”, the “soluble on expression in E. coli” value was “soluble”. For “MSDVKGKSTSGRGLTPKQEKFCQLYIELGNASEAYRQSYDCSKMTTEVINVKASELLNKNGKITVRVEELRQAHQQRHNLTLDNIIADLQEYRDICMGRKPLTITTVVKNAQEGTAQSVNTECFVFEPTGANKALELLGKHLGMFTNKVDVTTDGKPLPTVINVTFSDEPA”, the “soluble on expression in E. coli” value was “not soluble”. For “MDLNVKQSGIHSVALHTTYFQNRSGKVYKRAEERYLRNDLSCGLAQCGTCKDFGTNPLLKIENPVRNAKVGRHALIVDSTSLIRFYDLFDSSLLRDLIVTQTVWEGVKAKAVPAYKKMNSLCYEDAKDRFHVFMNEFHCETFSESSKFEDLSRGEELLLSTALYLKTHWQKHNVAPVVLVFDEDSKKRMENHYQHVMYLKEYIQNLEDPGKQALLDQMAAYESSGNGNEKQIFDEYLSHDRIMEGIASGTIKRGNFSVSRENYREATVIIDDQLTSWFITGNNCNRAVNGDTVAVQLLPEDQWTAPEKKIRLRDVEEYVKTADDMGNEDEENDDENDEPKAKKSKKMTVSTAKVVGIIKRNWREYCGMLLPSTVKGARRHLFCPAERLIPRIRIETEQAETLSQQRIVVAIDHWPRDSKYPLGHYVRSIGEMGSRETENEVLLLEHDIPHAPFSESVLDCLPREEWEPDLTENRGPLPRVDLRDLTICSVDPLGCTDIDDALHCKQIGEDLFEVGVHIADVTHFVRPGTAIDDEAALRGTTVYLCDRRIDMLPCLLSSNLCSLRGEEERYAFSCIWTMTSSADIQSVKYHKSLIKSKAALTYEKAQEIIDDPKEQNDVALGLRGLMKLSKVLNARRTGNGALTLASSEVRFDMDWESRTPKKVMEKQHLDTHSMVEEFMLLANISVAEKILEEYPDCALLRRHPVPLKESYKPLVEAARHRGFEIIVESGKGLADSLNRCVDKKNPMLNRLLRMLTTRCMTQAVYFSAGKDGFSDIKLEEKKFFVLKTLNLPYRSCLCDDTETSIHLSRGLNDYFLFKKEKLHMSVGVLFKLFDCLGTVPVPQYQHFGLACAIYTHFTSPIRRYADVIVHRLLAAAIGADDIQSGLLNQARCTKICTNINYRHKQAQYAGRASVQLNVVRYFKGKVETCEGFVMGVRNNGIQVFVPKYGLESIIVLQTSAASGTTIDVEEMSVKVNGDVVIKELEPVTVRISVNEKNQQRPRVELQLIKPAIPGLSVDFDLSSSEGLGL”, the “soluble on expression in E. coli” value was “not soluble”. With “MSLTYPVLKGAGYVLIHTPDMIVQNGSTCTVERATNPDSEFLKEVSNHIRSYEDVVNYMPNQVYIGNRRPEELRDLPMPWCEQKIEGTRNGKFGEIMPQDEFIALMQISDAFDLVKLSQEFIDEVKPKIENNYPEIAPFVGKLKGDDIEEGKELVATHIAEGLYHDGKFVGYVKRAHDVDVNLNAHTMFENLVVKASGVLSAIQMLRHSKIDPAEIDYVIECSEEACGDINQRGGGNFAKSIAEIAGLQNATGSDTRGFCAAPTHALIQAAALVKAGIHKNVMVVAGGASAKLGMNAKDHVKKGLPVLEDVVGGFAVLVSENDGVNPVIRTDLTGKHTVGTGSSPQAVMTALITSGLDRANLKITDVDVYSVEMQNPDITKPAGAGDVPEANYKMIGALAVKRGDLEKKELKDFVSNKGLPGWAPTQGHIPSGAPYIGFLIDDLTTGNRNRAMIVGKGSLFLGRMTNLFDGVSFIAERNTGVTEETSGISKDEIKKIIAESMKKLALDMLEEGHHHHHH” the “soluble on expression in E. coli” value was “soluble”. For “MKLQKQLLEAVEHKQLRPLDVQFALTVAGDEHPAVTLAAALLSHDAGEGHVCLPLSRLENNEASNPLLATCVSEIGELQNWEECLLASQAVSRGDEPTPMILCGDRLYLNRMWCNERTVARFFNEVNHTIEVDEALLAQTLDKLFPVSDEINWQKVAAAVALTRRISVISGGPGTGKTTTVAKLLAALIQMADGERCRIRLAAPTGKAAARLTESLGKALRQLPLTDEQKKRIPEDASTLHRLLGAQPGSQRLRHHAGNPLHLDVLVVDEASMIDLPMMSRLIDALPDHARVIFLGDRDQLASVEAGAVLGDICAYANAGFTAERARQLSRLTGTHVPAGTGTEAASLRDSLCLLQKSYRFGSDSGIGQLAAAINRGDKTAVKTVFQQDFTDIEKRLLQSGEDYIAMLEEALAGYGRYLDLLQARAEPDLIIQAFNEYQLLCALREGPFGVAGLNERIEQFMQQKRKIHRHPHSRWYEGRPVMIARNDSALGLFNGDIGIALDRGQGTRVWFAMPDGNIKSVQPSRLPEHETTWAMTVHKSQGSEFDHAALILPSQRTPVVTRELVYTAVTRARRRLSLYADERILSAAIATRTERRSGLAALFSSRE”, the “soluble on expression in E. coli” value was “not soluble”. For “MAGISIGVGSTDYTDLVNKMVNLEGAAKTNQLATLEKTTTTRLTALGQFKSAISAFQTALTALNSNAVFMARTAKSSNEDILKASATQSAVAGTYQIQVNSLATSSKIALQAIADPANAKFNSGTLNISVGDTKLPAITVDSSNNTLAGMRDAINQAGKEAGVSATIITDNSGSRLVLSSTKTGDGKDIKVEVSDDGSGGNTSLSQLAFDPATAPKLSDGAAAGYVTKAANGEITVDGLKRSIASNSVSDVIDGVSFDVKAVTEAGKPITLTVSRDDAGVKDNVKKFVEAYNTLTKFINEQTVVTKVGEDKNPVTGALLGDASVRALVNTMRSELIASNENGSVRNLAALGITTTKDGTLEIDEKKLDKAISADFEGVASYFTGDTGLAKRLGDKMKPYTDAQGILDQRTTTLQKTLSNVDTQKADLAKRLAALQEKLTTQFNLLSAMQDEMTKRQKSITDNLASLPYGSGKKT”, the “soluble on expression in E. coli” value was “not soluble”. With “MGSDKIHHHHHHMSEQELSQLSGGMDDAAPCPWLKVEVHPAGDRQVVVAYGDIDVDTEAILQRALREALDHSVSGVNLDLGAVGFCDCAGLNVLLRMRRHALAHGKTLAVQATGPATGKLLTITGTLSLFDVTAGPGTRAKGRNPLPPEPHDPSRVDHIDGTGRGRDGTDLETDGTIDGTVVDLRIEVGQLRRAMQTRPVIDLARGVLMASFGLSAEDAWTVLVTVSQHTNTKLHQIAEDLVNTVQGAPLPEPLQRQLAEAVMPFSRVRNAGA” the “soluble on expression in E. coli” value was “not soluble”. In the case of “AWFDWPVHRVYVNIGKTRRFHQHYYRRDVGSHVWQHNPVHRRGVAYRDRKTSDFYGKRPPRMAPVRPETRGYPGKFPGRPESRQQQPARERRDVPGAPQTGKGPGQVPRRDSTVAPQAQPPQREQVQKPARRDTPFQGVGEGSFERRAIKRGESSIRSVTPAPQGGGRGGWSGQRAPSGGGRGGGEMRMPGGGGGGGRGGGKKEFR”, the “soluble on expression in E. coli” value is reported as “not soluble”. With “GSQGHDTVQPNFQQDKFLGRWYSAGLASNSSWFREKKAVLYMAKTVVAPSTEGGLNLTSTFLRKNQCETKIMVLQPAGAPGHYTYSSPHSGSIHSVSVVEANYDEYALLFSRGTKGPGQDFRMATLYSRTQTLKDELKEKFTTFSKAQGLTEEDIVFLPQPDKCIQE” the “soluble on expression in E. coli” value was “soluble”. For “MGSDKIHHHHHHMSRDAPIKADKDYSQILKEEFPKIDSLAQNDCNSALDQLLVLEKKTRQASDLASSKEVLAKIVDLLASRNKWDDLNEQLTLLSKKHGQLKLSIQYMIQKVMEYLKSSKSLDLNTRISVIETIRVVTENKIFVEVERARVTKDLVEIKKEEGKIDEAADILCELQVETYGSMEMSEKIQFILEQMELSILKGDYSQATVLSRKILKKTFKNPKYESLKLEYYNLLVKISLHKREYLEVAQYLQEIYQTDAIKSDEAKWKPVLSHIVYFLVLSPYGNLQNDLIHKIQNDNNLKKLESQESLVKLFTTNELMRWPIVQKTYEPVLNEDDLAFGGEANKHHWEDLQKRVIEHNLRVISEYYSRITLLRLNELLDLTESQTETYISDLVNQGIIYAKVNRPAKIVNFEKPKNSSQLLNEWSHNVDELLEHIETIGHLITKEEIMHGLQAK”, the “soluble on expression in E. coli” value was “not soluble”. For “MKKVLLTAINSQFIHSNLAVRYLKAYAKELDLQIKIREFSINDRLERIFEEIMYEKPDIVGFSCYIWNGEYVDKLSNLIKRVDENIQIFYGGPEVSFDCREVLLNSSADFLIEGEGEESFKEFLKWKLENGFDRKDLKIKGVYSKCQNQILYGGQREALDMNLLEFPYNEEDDLSNKIIYYEASRGCPFNCKYCLSSTIRGVRFLNPDRVKRELKFLADKKVKIVKFVDRTFNANPKFAMEIWKYLMELDTETVFHFEITADIVTEDEIELLKNAPKGRFQFEVGVQSTNNEVLKNVNRYIEFKDIKEIVMKLEEGKNINQHLDLIVGLPGEDFNSFKNSFNDVYSIGPEKLQIGFLKLLKGSSMREEAEKWGMSYSPYHPYEILRTKDISFEEISILKRVDSVVDKYYNTGKFDHIVEFLISDFETPFDFYYKLSEYFYHKGYFNRSISASEYYKVFLDFNKEILKKENDVLEEIVKFEYLKFNKKSWLPPFLTRLNVKEEEQAIKEKLKEENKFDKKLHLEKFSIDIDRYITKKEIVYKEMYHIFN”, the “soluble on expression in E. coli” value was “not soluble”. For “APPSSFSAAKQQAVKIYQDHPISFYCGCDIEWQGKKGIPNLETCGYQVRKQQTRASRIEWEAVVPAWQFGHHRQCWQKGGRKNCSKNDQQFRLMEADLHNLTPAIGEVNGDRSNFNFSQWNGVDGVSYGRCEMQVNFKQRKVMPPDRARGSIARTYLYMSQEYGFQLSKQQQQLMQAWNKSYPVDEWECTRDDRIAKIQGNHNPFVQQSCQTQ”, the “soluble on expression in E. coli” value was “soluble”. In the case of “VDEKALKHITEMGFSKEASRQALMDNGNNLEAALNVLLTSNKQKPVMGPP”, the “soluble on expression in E. coli” value is reported as “soluble”. With “MKTKIINLVVVTGMSGAGKTVAIQSFEDIGYFTIDNIPPSLVPKVIELLKHSEETDKIALVVDMRSRVFFDEINDILDQLESNEELNFKILFLDATDGELVSRYKETRRSHPLAADGRVLDGIKLERELLSPLKSLSQNVVDTTKLTPRQLRKAISEQFSSKQDQSSFRIEVLSFGFKYGLPLDADLVFDVRFLPNPYYDPTLRNLTGLDKEVYDFVMTHKESEDFYKNLNHLIKPILPGYQKEGKSVLTIAVGCTGGQHRSVAFAHRLAQDLKNDWTVNETHRDKDRRKETVNRS” the “soluble on expression in E. coli” value was “not soluble”.

— the DeepSol protein solubility set
